The target in the data set is DNMT3B MTase domain WT (human, UniProt Q9UBC3 569-853). Put plainly: ITC; 5 C; ITC: 20 mM Tris-HCl pH 7.2, 200 mM NaCl, 5% glycerol, 2 mM b-mercaptoethanol, 5 C; EMSA: 50 mM Tris-HCl pH 8.0, 25% glycerol, 8% glucose, 2 mM DTT, 0.1 mg/mL BSA, 30 min, gel in 0.5x TBE at 4 C. As to conditions: protein: recombinant; tags: His6-MBP removed by TEV; (only upper strand given).

B1: 24-mer DNA duplex (GAC)8 (dsDNA)
DNA 1: GACGACGACGACGACGACGACGAC
DNA 2: GTCGTCGTCGTCGTCGTCGTCGTC
In general, Kd refers to the free concentration of one partner at which half of the binding sites on the other are occupied at equilibrium, for simple one-to-one binding. In the case of B1, the equilibrium dissociation constant (Kd) turned out to be 4 ± 0.1 µM.

For the origin of these results see paper PMC9307851.
